From paper PMC10966351

Biological target: BlaC P107T (Mycobacterium tuberculosis)
Experiment: crystal structure; sitting-drop vapor diffusion at 20°C, protein 10 mg/mL in 100 mM sodium phosphate buffer pH 6.4; four molecules in the asymmetric unit

Substance: BlaC P107T (enzyme)
- stoichiometry N: 2
